Measurements published in patent publication US20120149645A1, “COMPOSITIONS AND MODULATION OF MYOCYTE ENHANCER FACTOR 2 (MEF2)” (EMORY UNIVERSITY, priority 2010, published 2012).

What was measured:
MEF2D binding to ND6 = assay: ChIP assay of MEF2D binding to the ND6 MEF2 site in purified mitochondria; format: cell-based, mouse; details: construct over-expressed in SN4741 cells
Source text: (A) Mitochondria-targeting MEF2D (Mt2D) and mitochondria-targeting dominant-negative MEF2D (Mt2Ddn), which lacks the transactivation domain (TAD). […] Control indicates the control vector group. (C) Effects of Mt2D or Mt2Ddn on ND6 expression in SN4741 cells. Over-expression of Mt2Ddn in SN4741 cells reduced ND6 but not PPAR-γ coactivator 1 (PGC1) expression by western blotting (n=4, **p<0.01). Control indicates the control vector group. (D) Effects of over-expression of Mt2D or Mt2Ddn on mRNA levels of mitochondria encoded genes. […] Control indicates the control vector group. (E) Effects of Mt2D or Mt2Ddn on mtDNA L-strand transcription initiation in vitro (n=3; **P<0.01). A human mtDNA fragment containing mitochondrial L-strand promoter (LSP) and ND6 gene was used in the in vitro transcription assay. […] (F) Effects of Mt2D or Mt2Ddn on mtDNA de novo transcription in vivo (n=3; **P<0.01). Control (−) is without primers. Control (+) indicates the control vector group.
(A) Reduced binding of MEF2D to ND6 after neurotoxin treatment. SN4741 cells were treated with MPP+ (25 μM) or rotenone (Rot, 100 nM) for 12 hours. […] Control indicates untreated. […] Control indicates untreated. (C) Immunocytochemical analysis of mitochondrial MEF2D after MPP+ and rotenone treatment. SN4741 cells treated as described in (A) were stained (scale bar, 10 μm). […] Experiments were repeated four times. Control indicates untreated. […] SN4741 cells were treated with MPP+ after infection with the control, Mt2Ddn or Mt2DVP16 or MtND6 lentiviruses for 24 hours (upper graph: different doses of MPP+ for 24 hours; lower graph: 5 μM of MPP+ for different times). Cell viability was measured by WST-1 assay (n=4; *p<0.05; **P<0.01). Control indicates the control vector group.
Andres et al., J Biol Chem, 1995, 270:23246-23249. Moreover, this putative MEF2 binding site is conserved among several species. To test whether MEF2D binds to this putative MEF2 site, electronic mobility shift assay (EMSA) was performed. N-terminal MEF2D formed a complex with the labeled probe containing the ND6 MEF2 site. […] To corroborate this finding, a chromatin immunoprecipitation (ChIP) assay was carried out using highly purified mitochondria. […] ND6 but not ND2 based primers could amplify the bound sequence (FIG. 3C). Sequence analysis of the DNA bound by MEF2D after amplification confirmed the presence of the ND6 MEF2 site (FIG. 3D).

mitochondrial complex I = assay: Mitochondrial complex protein level and activity (BN-PAGE, in-gel staining, quantitative assays); format: cell-based, mouse; details: over-expression in SN4741 cells
Source text: (A) Requirement of mitochondrial MEF2D for complex I activity. […] Control indicates the control vector group. (B) Over-expression of ND6 rescued complex I activity reduced by Mt2Ddn. Control indicates the control vector group. (C) Measurement of various complex activities. […] Control indicates the control vector group. (D) Effects of over-expression of Mt2D or Mt2Ddn on mitochondrial function. Mt2Ddn reduced cellular ATP level and elevated H2O2 production in SN4741 cells (n=4; *p<0.05; **P<0.01). Control indicates the control vector group.
Mitochondrial complex I activity was evaluated initially by blue native-polyacrylamide gel electrophoresis (BN-PAGE) and in-gel activity staining. This assay measures total complex I activity. Rotenone sensitive complex I activity and activities of other mitochondrial complexes were further measured by methods described by Antoni et al., J Biol Chem, 1998, 273:14210-14217. Briefly, parallel assays were performed to measure complex I activity at 340 nm using 2,3-dimethoxy-5-methyl-6-n-decyl-1,4-benzoquinone (DB) (50 μM) as acceptor and NADH (0.8 mM) as donor, in 50 mM Tris (pH 8.0) buffer supplemented with 5 mg/ml BSA either without or with the addition of 4 μM rotenone, which gave total and rotenone insensitive complex I activities, respectively. The difference in value between the two provided a quantified measure of the rotenone-sensitive activity. Mitochondrial membrane potential was detected using a kit (cat. no. 280002) from Stratagene following the procedures provided by the manufacturer. The fluorescent dye JC-1 (5,5′,6,6′-tetrachloro-1,1′,3,3′-tetraethylbenzimidazolyl carbocyanine iodide) stains mitochondria red in a membrane potential dependent manner. Briefly, cells were seeded in 96-well plates at 4×10^4 cells/well with 100 μl culture medium and incubated at 33° C. with 5% CO2. After treatment, 10 μl/well of premixed JC-1 staining solution was added, and the cells were incubated for an additional 30 min under the same conditions. After thorough washes, 100 μl assay buffer was added to each well. Fluorescence signal was detected with excitation and emission at 520 nm and 590 nm, respectively, on a multi-well plate reader (Bio-Tek). Cellular ATP and H202 were measured by Bioluminescent Somatic Cell ATP Assay Kit (Sigma) and Hydrogen Peroxide Assay Kit (Cayman), respectively.

nuclear MEF2 = assay: MEF2 luciferase reporter assay; format: cell-based; details: co-transfected with MEF2 luciferase reporter
Source text: Control indicates the group co-tranfected with control vector.
MEF2 luciferase reporter assay was done as described Wang et al., J Biol Chem, 2005, 280:16705-16713. Briefly, cells were transiently transfected with various constructs with MEF2 luciferase reporter plasmid (WT, reporter with wild type MEF2 DNA binding sites; mt, reporter with the MEF2 DNA binding sites mutated) using Lipofectimane 2000 (Invitrogen) following procedures provided by the manufacturer. A β-galactosidase expression plasmid was used to determine the efficiency in each transfection. The total amount of DNA for each transfection was kept constant by using control vectors. Cell lysates were analyzed for luciferase and β-galactosidase activity according to the manufacturer's instructions (Roche, cat. no. 11669893001).

[1] = non-denature gel electrophoresis

B1: Mt2Ddn: Mitochondria-targeting dominant-negative MEF2D: mouse MEF2D 1-131aa with mitochondria-targeting signal, lacks the transactivation domain (protein, UniProt Q63943 1-131, looked up, fragment)
chain: MGRKKIQIQRITDERNRQVTFTKRKFGLMKKAYELSVLCDCEIALIIFNHSNKLFQYASTDMDKVLLKYTEYNEPHESRTNADIIETLRKKGFNGCDSPEPDGEDSLEQSPLLEDKYRRASEELDGLFRRY
modifications: mitochondria-targeting signal added
binding of full length MEF2D to the ND6 MEF2 site (MEF2D binding to ND6): modulated
mitochondrial complex I activity (mitochondrial complex I): significantly reduced
protein level of complex II-V (mitochondrial complex I; [1]): no effect
protein level of mitochondrial complex I (mitochondrial complex I; [1]): markedly reduced
nuclear MEF2 activity (MEF2 reporter) (nuclear MEF2): did not affect
